In PMC6386500 (PLoS ONE, 2019):
Each block holds one molecule with its values, some of them ahead of it.

Assays:
[1] = biological target: Citrate synthase from Metallosphaera sedula (Metallosphaera sedula); experiment: SEC; HiPrep 26/60 Sephacryl S-300 HR column, buffer A (40 mM Tris-HCl, pH 8.0), 277 K; eluted at approximately 85 kDa
[2] = biological target: T1, MsCS (citrate synthase from Metallosphaera sedula) (Metallosphaera sedula, UniProt A4YGX6); experiment: DTNB absorbance at […] nm, inhibition kinetics; type: biochemical
T1 construct: gene Msed_1522; C-terminal 6xHis tag (pET-30a, NdeI/XhoI), E. coli BL21(DE3)-T1R; homodimer about 85 kDa; modelled domains Met1-Arg370; His214, His253, Asp307 catalytic

purified protein [3] = substrate: O=C(O)CC(=O)C(=O)O; experiment: purified protein; type: biochemical, Metallosphaera sedula; conditions: 0.5 mM acetyl-CoA, 100 mM potassium phosphate pH 8.0, 150 mM NaCl, 50 uM DTNB, 298 K, no inhibitor, 25.0 °C
purified protein [4] = substrate: CC(=O)SCCNC(=O)CCNC(=O)[C@H](O)C(C)(C)COP(=O)(O)OP(=O)(O)OC[C@H]1O[C@@H](n2cnc3c(N)ncnc32)[C@H](O)[C@@H]1OP(=O)(O)O; experiment: purified protein; type: biochemical, Metallosphaera sedula; conditions: 100 mM potassium phosphate pH 8.0, 150 mM NaCl, 50 uM DTNB, 298 K, oxaloacetate concentration not stated, no inhibitor, 25.0 °C

stoichiometry N [1]: 2
Molecule: Citrate synthase from Metallosphaera sedula (enzyme)

Ki [2]: 4.34 mM
Molecule: Nc1ncnc2c1ncn2[C@@H]1O[C@H](COP(=O)(O)OP(=O)(O)OP(=O)(O)O)[C@@H](O)[C@H]1O [ATP]

Ki [2]: 4.41 mM
Molecule: NC(=O)C1=CN([C@@H]2O[C@H](COP(=O)(O)OP(=O)(O)OC[C@H]3O[C@@H](n4cnc5c(N)ncnc54)[C@H](O)[C@@H]3O)[C@@H](O)[C@H]2O)C=CC1 [NADH]

B1: MsCS (citrate synthase from Metallosphaera sedula) (Metallosphaera sedula DSM 5348) (protein)
chain: MELRKGLEDIAIKETSITYIDGELGRLYYRGYSIFDLASFSNFEEVAYLLWYGKLPTRHELDDFKSRLAEERSISEDISTFVKRTAKFGNPMDILRTTVSMMGLEDRSEGDLIGKAIKMTAKIPTIISLIQRTRRNQEFVEPDPSLSHSENFLYMIRGERPSPSDTRVLDVSLMLHMDHEMNASTMACLVVASTLSDIYSSVVAGISALKGPLHGGANSEALKQFMEIETPDNVEKYVMNKLSSGQRLMGFGHRIYKTMDPRAKILKEYANQLSKNEEIKRLFEIANRVEEIGIKILGKRGIYPNVDFYSGLVFYAMGFDPDLFPTIFASARVIGWTAHVDEYLKDNKLIRPKAIYVGDLGKRYVPIEER
notes: C-terminal 6xHis tag (pET-30a, NdeI/XhoI), E. coli BL21(DE3)-T1R; homodimer about 85 kDa; modelled domains Met1-Arg370; His214, His253, Asp307 catalytic
Km (purified protein [3]): 41.4 µM
kcat (purified protein [3]): 7.62 s⁻¹
Km (purified protein [4]): 16.5 µM
kcat (purified protein [4]): 8.56 s⁻¹
kcat/Km (purified protein [4]): 519000 M⁻¹ s⁻¹
